Experiments:
[1] = biological target: T1, mouse CD70 extra-cellular domain (ECD) linked to His tag (mouse, UniProt O55237 45-195); experiment: BLI, global fit, cell repeated in each row; response below range of quantification, filing reports no cross-reactivity
T1 construct: extracellular domain; also called MS CD70; not shown: His tag
T1 sequence (looked up): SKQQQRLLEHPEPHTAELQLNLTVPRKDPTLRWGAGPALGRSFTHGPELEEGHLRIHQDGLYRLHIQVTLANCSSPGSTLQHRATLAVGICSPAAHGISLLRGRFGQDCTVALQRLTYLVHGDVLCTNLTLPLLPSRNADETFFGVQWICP
Procedure: (§1) Recombinant proteins consisting of human, rat, or mouse CD70 extra-cellular domain (ECD) linked to His tag was purchased (from ACRO systems). 69A7 and 2E7 (20 nM) were immobilized on anti-human IgG Fc biosensor tips (ForteBio). Binding assays using one concentration (100 nM) of recombinant protein in solution were performed using Octet RED (ForteBio). Association time was set at 180s and dissociation time was set at 300s. Binding affinity was calculated using ForteBio Data Acquisition 6.3 software. Affinity was derived by fitting the kinetic data to a 1:1 Langmuir binding model utilizing global fitting algorithms. […] 2E7 had no cross-reactivity to rat or mouse CD70 (Table 10).

[2] = biological target: T2, rat CD70 extra-cellular domain (ECD) linked to His tag (rat); experiment: as above
T2 construct: extracellular domain
Procedure: as §1

[3] = biological target: T3, human CD70 expressed on the cell surface of tumor cell lines (human, UniProt P32970 1-193); experiment: flow cytometry on Raji cells
T3 construct: whole, on cells
T3 sequence (looked up): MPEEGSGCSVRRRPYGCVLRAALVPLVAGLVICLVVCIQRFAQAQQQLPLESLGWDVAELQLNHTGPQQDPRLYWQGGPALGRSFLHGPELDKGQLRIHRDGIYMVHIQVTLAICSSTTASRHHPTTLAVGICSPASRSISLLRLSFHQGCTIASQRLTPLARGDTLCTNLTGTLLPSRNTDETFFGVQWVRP
Procedure: Binding activity of 2E7 or the isotype control with a target cell line (Raji) or a cell line (MCF-7) that has negligible level of CD70 expression were evaluated by flow cytometry (Beckman, Cytoflex). 3×10⁵ cells per well were seeded on a 96-well V-bottomed plate and incubated with 100 μl of 2E7 in serial dilutions. After 30 min incubation at 4° C., cells were washed twice with PBS, stained with 100 μl of 1:200 diluted PE-conjugated anti-human Fc in FACS buffer (1×PBS containing 1% BSA), then incubated at 4° C. for 30 min. Cells were finally washed two times with PBS and analyzed by flow cytometric analysis.

[4] = biological target: T4, human CD70 recombinant protein (human, UniProt P32970 39-193, limits assumed); experiment: ELISA, IgG titrated on coated human CD70 recombinant protein (2 µg/ml), anti-human Fc-HRP, OD450
T4 construct: May be the same reagent as ACRO CDL-H5246; also called CD70 protein
T4 sequence (looked up): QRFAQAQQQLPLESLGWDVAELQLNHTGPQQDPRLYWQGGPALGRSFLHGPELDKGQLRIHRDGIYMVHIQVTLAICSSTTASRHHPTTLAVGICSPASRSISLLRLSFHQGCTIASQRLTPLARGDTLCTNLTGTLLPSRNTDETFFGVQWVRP
Procedure: The binding specificity of the CD70 antibodies was tested by ELISA according to a standard protocol. Briefly, 96-well micro-plates were coated with 2 μg/ml of human or cynomolgus CD70 recombinant protein in PBS at 100 μl per well and incubated overnight at 4° C. The plates were washed twice with TBS+0.5% Tween20. 200 μL of blocking buffer (2% BSA in PBS) was added to each well, and the plates were incubated at 37° C. for 2 hours. The plates were washed using the wash buffer mentioned above. Serially diluted antibodies were added to the ELISA plates using 100 μl per well, and the plates were incubated for 1 hour at room temperature. Then plates were washed 3 times. HRP conjugated anti-human Fc antibody solution (Sigma, I18885-2ML, diluted with blocking buffer) was added to the plates using 100 μl per well. The plates were incubated at room temperature for 1 hour and then washed 3 times. Then the TMB solution was added to plates using 100 μl per well and the plates were placed at RT for 5-15 mins. Then the stop solution (2M H2SO4) was added using 50 μl per well. The absorbance was measured at A450 and A630.

[5] = biological target: T5, CD70 ECD (antigen immobilized on the CM5 chip) (UniProt P32970 39-193); experiment: SPR (Biacore T200), CD70 ECD on CM5 chip
T5 construct: extracellular domain; also called CD70 antigen
T5 sequence (looked up): T4 sequence (looked up)
Procedure: (§2) The immobilization of antigen CD70 ECD was performed at 25° C. with HBS-EP as the running buffer. Sensor chip surface of flow cells 1, 4 were activated by freshly mixed 50 mmol/L N-Hydroxy succinimide (NHS) and 200 mmol/L 1-ethyl-3-(3-dimethylaminopropyl) carbodiimide hydrochloride (EDC) for 420s (10 μL/min). Afterwards, CD70 antigen diluted in 10 mmol/L NaAC (pH 4.5) was injected into flow cell 4 to achieve conjugation of the appropriate Response Unit, while flow cell 1 was set as a blank. After the amine coupling reaction, the remaining active coupling sites on chip surface were blocked by 420s injection of 1 mol/L ethanolamine hydrochloride.
(§3) The assay was performed at 25° C. and the running buffer was HBS-EP. Diluted antibodies were injected over the surface of flow cells 1 and 4 during the association phase, followed by injecting running buffer as the dissociation phase. All the data were processed using Biacore T200 Evaluation software version 3.1. Flow cell 1 and a blank injection of buffer in each cycle were used as a double reference for Response Units subtraction. Kinetic data of the interaction between the antibodies and CD70 antigen were obtained through affinity measurement.

[6] = biological target: T5, CD70 ECD (antigen immobilized on the …); experiment: SPR (Biacore T200), CD70 ECD on CM5 chip, IgG as analyte
Procedure: as §2, §3

Kd [1]: 1.03 µM | koff [1]: 0.121 s⁻¹ | kon [1]: 117000 M⁻¹ s⁻¹ | Kd [2]: 0.00175 µM | koff [2]: 0.0104 s⁻¹ | kon [2]: 5.9e+06 M⁻¹ s⁻¹ | EC50 [3]: ~0.019 µM | EC50 [4]: 0.0161 mg/L | fold greater affinity than parent antibody 69A7 [5]: 22 fold | Kd [6]: 0.014 µM | koff [6]: 0.00106 s⁻¹ | kon [6]: 75400 M⁻¹ s⁻¹
B1: 2E7, full IgG (antibody, V domains shown)
VH: QVQLQESGPGLVKPSETLSLTCTVSGGSVSSDYYYWSWIRQPPGKGLEWLGYIYYSGSTNYNPSLKSRVTISVDTSKNQFSLKLRSVTTADTAVYYCARGDGDFLGVCFDYWGQGTLVTVSS
VL: EIVLTQSPATLSLSPGERATLSCRASQSVSSYLAWYQQKPGQAPRLLIFDASNRATGIPARFSGSGSGTDFTLTISSLEPEDFAVYYCQQRSNWPLTFGGGTKVEIK

Reference: patent US20250066490A1 (PROFOUNDBIO US, published 2025)
